# In article PMC6437151:
# Columns and labels:
# FBXW2 [1] = target: FBXW2 (UniProt Q9UKT8); experiment: IP with FBXW2 antibody, immunoblot; details: reference: wild type; sites S552
# FBXW2 [2] = target: FBXW2 (UniProt Q9UKT8); experiment: co-transfection, HA IP, immunoblot; details: reference: wild type; sites S552
substance,measurement,setting,value
β-catenin (from UniProt P35222) S552A,binding against the reference,FBXW2 [1],lost
same,binding against the reference,FBXW2 [2],lost
